T1: MED22 (mouse (Mus musculus; endogenous in CH12), UniProt Q62276 1-200)
T1 construct: MED22, Mus musculus, endogenous Head module subunit of Mediator; source: endogenous, CH12 mouse B lymphoma nuclear extract; immunopurified as part of Mediator (FLAG M2 agarose, FLAG peptide elution)
T1 sequence (looked up): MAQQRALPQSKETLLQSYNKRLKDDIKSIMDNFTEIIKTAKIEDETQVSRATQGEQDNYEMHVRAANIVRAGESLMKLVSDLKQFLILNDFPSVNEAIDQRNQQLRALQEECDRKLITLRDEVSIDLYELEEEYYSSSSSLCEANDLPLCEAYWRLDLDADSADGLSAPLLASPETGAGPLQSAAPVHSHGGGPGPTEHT

T2: MED17 (mouse (Mus musculus; endogenous in CH12), UniProt Q8VCD5 1-649)
T2 construct: MED17, Mus musculus, endogenous Head module scaffold subunit of Mediator; source: endogenous, CH12 mouse B lymphoma nuclear extract; immunopurified as part of Mediator (FLAG M2 agarose, FLAG peptide elution)
T2 sequence (looked up): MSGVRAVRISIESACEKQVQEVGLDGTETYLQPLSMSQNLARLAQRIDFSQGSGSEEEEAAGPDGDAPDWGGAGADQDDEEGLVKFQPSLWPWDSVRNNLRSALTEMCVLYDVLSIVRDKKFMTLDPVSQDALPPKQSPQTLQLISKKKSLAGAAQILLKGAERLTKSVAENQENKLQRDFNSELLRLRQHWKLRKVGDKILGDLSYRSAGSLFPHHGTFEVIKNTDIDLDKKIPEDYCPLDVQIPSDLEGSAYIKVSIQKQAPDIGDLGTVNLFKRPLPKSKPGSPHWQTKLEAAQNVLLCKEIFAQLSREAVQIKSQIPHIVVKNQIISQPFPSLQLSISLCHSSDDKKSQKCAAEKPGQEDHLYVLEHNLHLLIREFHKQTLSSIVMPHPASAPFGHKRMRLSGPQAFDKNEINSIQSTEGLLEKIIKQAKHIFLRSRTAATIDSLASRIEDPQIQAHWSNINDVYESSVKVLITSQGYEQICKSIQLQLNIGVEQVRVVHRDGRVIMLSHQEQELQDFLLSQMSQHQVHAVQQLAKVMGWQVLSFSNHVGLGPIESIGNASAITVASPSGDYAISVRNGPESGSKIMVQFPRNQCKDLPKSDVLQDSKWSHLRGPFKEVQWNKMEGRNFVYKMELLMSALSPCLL

T3: MED29 (mouse (Mus musculus; endogenous in CH12), UniProt Q9DB91 1-199)
T3 construct: MED29, Mus musculus, endogenous upper Tail subunit of Mediator; source: endogenous, CH12 mouse B lymphoma nuclear extract; immunopurified as part of Mediator (FLAG M2 agarose, FLAG peptide elution)
T3 sequence (looked up): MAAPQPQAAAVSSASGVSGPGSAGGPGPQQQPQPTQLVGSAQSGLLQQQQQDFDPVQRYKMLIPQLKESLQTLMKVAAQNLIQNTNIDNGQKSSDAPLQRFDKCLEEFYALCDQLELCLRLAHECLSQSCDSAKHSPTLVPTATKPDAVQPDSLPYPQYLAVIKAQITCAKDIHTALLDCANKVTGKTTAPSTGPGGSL

T4: MED27 (mouse (Mus musculus; endogenous in CH12), UniProt Q9DB40 1-311)
T4 construct: MED27, Mus musculus, endogenous upper Tail subunit of Mediator; source: endogenous, CH12 mouse B lymphoma nuclear extract; immunopurified as part of Mediator (FLAG M2 agarose, FLAG peptide elution)
T4 sequence (looked up): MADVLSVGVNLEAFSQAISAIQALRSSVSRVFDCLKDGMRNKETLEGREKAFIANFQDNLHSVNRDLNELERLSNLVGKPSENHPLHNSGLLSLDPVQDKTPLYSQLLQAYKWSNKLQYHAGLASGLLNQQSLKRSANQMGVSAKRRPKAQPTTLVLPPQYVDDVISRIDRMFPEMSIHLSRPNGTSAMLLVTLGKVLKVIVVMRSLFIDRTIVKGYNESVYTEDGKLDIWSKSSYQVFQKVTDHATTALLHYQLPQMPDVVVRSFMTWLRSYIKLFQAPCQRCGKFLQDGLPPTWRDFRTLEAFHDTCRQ

B1: MED30 (natural protein, mouse (Mus musculus; endogenous in CH12), UniProt Q9CQI9 1-178, looked up)
chain: MSTPPLAPTGMASGPFGGPQAQQAAREVNTATLCRIGQETVQDIVYRTMEIFQLLRNMQLPNGVTYHTGTYQDRLTKLQDHLRQLSILFRKLRLVYDKCNENCGGMDPIPVEQLIPYVDEDGSKNDDRAGPPRFASEERREIVEVNKKLKQKNQQLKQIMDQLRNLIWDINAMLAMRN
notes: MED30, Mus musculus, endogenous upper Tail subunit of Mediator; source: endogenous, CH12 mouse B lymphoma nuclear extract; immunopurified as part of Mediator (FLAG M2 agarose, FLAG peptide elution)
B2: MED11 (natural protein, mouse (Mus musculus; endogenous in CH12), UniProt Q9D8C6 1-117, looked up)
chain: MATYSLANERLRALEDIEREIGAILQNAGTAILELSKEKTNERLLDRQAAAFTTSVQHVEAELSAQIRYLTQVATGQPHEGSSYSSRKDCQMALKRVDYARLKISDVARTCEQMLEN
notes: MED11, Mus musculus, endogenous Head module subunit of Mediator; source: endogenous, CH12 mouse B lymphoma nuclear extract; immunopurified as part of Mediator (FLAG M2 agarose, FLAG peptide elution)
B3: MED24 (natural protein, mouse (Mus musculus; endogenous in CH12), UniProt Q99K74 1-987, looked up)
chain: MKVVNLKQAILQAWKERWSDYQWAINMKKFFPKGATWDILNLAEALLEQAMIGPSPNPLILSYLKYAISSQMVSCSSVLTAISKFDDFSRDLCVQALLDIMDMFCDRLSCHGKAEECIGLCRALLSALHWLLRCTAASAERLQEGLEAGTPAPGEKQLALCLQCLEKTLSSTKNRALLHIAKLEEASSWTAIEHSLLKLGEILANLSNPQLRSQAERCGTLIRSIPSMLSVHSEQLHKTGFPTIHALILLEGTMNLTGEMQPLVEQLMMVKRMQHIPTPLFVLEIWKACFVGLIESPEGTQELKWTAFTYLKIPQVLVKLKKYFHGEKDFTEDVNCAFEFLLKLTPLLDKADQRCNCDCTNFLLQECNKQGLLSEVNFASLVGKRTADRDPQLKSSENANIQPNPGLILRAEPTVTNILKTMDADHSKSPEGLLGVLGHMLSGKSLDLLLAAAAATGKLKSFARKFINLNEFTTHGSGESTKTASVRALLFDISFLMLCHVAQTYGSEVILSESSSGEEVPFFETWMQTCMPEEGKILNPDHPCFRPDSTKVESLVALLNNSSEMKLVQMKWHEACLSISAAILEILNAWENGVLAFESIQKITDNIKGKVCSLAVCAVAWLVAHVRMLGLDEREKSLQMIRQLAGPLYSENTLQFYNERVVIMNSILEHMCADVLQQTATQIKFPSTGVDTMPYWNLLPPKRPIKEVLTDIFAKVLEKGWVDSRSIHILDTLLHMGGVYWFCNNLIKELLKETRKEHTLRAVQLLYSIFCLDMQQVTLVLLGHILPGLLTDSSKWHSLMDPPGTALAKLAVWCALSSYSSHKGQASSRQKKRHREDIEDYVSLFPVEDMQPSKLMRLLSSSDDDANILSSPTDRSMNSSLSASQLHTVNMRDPLNRVLANLFLLISSILGSRTAGPHTQFVQWFMEECVGCLEQDSRGSILQFMPFTTVSELVKVSAMSSPKVVLAITDLSLPLGRQVAAKAIAAL
notes: MED24, Mus musculus, endogenous lower Tail subunit of Mediator; source: endogenous, CH12 mouse B lymphoma nuclear extract; immunopurified as part of Mediator (FLAG M2 agarose, FLAG peptide elution)
B4: MED28 (natural protein, mouse (Mus musculus; endogenous in CH12), UniProt Q920D3 1-178, looked up)
chain: MAASLGGMFTGQPPGPPPPPPGLPGQASLLQAAPGAPRPSNSTLVDELESSFEACFASLVSQDYVNGTDQEEIRTGVDQCIQKFLDIARQTECFFLQKRLQLSVQKPDQVIKEDVSELRSELQRKDALVQKHLTKLRHWQQVLEDINVQHKKPADMPQGSLAFLEQASANIPAPLKQT
notes: MED28, Mus musculus, endogenous upper Tail subunit of Mediator; source: endogenous, CH12 mouse B lymphoma nuclear extract; immunopurified as part of Mediator (FLAG M2 agarose, FLAG peptide elution)
B5: MED4 (natural protein, mouse (Mus musculus; endogenous in CH12), UniProt Q9CQA5 1-270, looked up)
chain: MAASSSGEKEKERMGGVSGMAGLGSTRERLLSALEDLEVLSRELIEMLAISRNQKLLQLEEENQVLELLIHRDGDFQELMKLALNQGKVHHEMQALEKEVEKRDSDIQQLQKQLKEAEQILATAVYQAKEKLKSIEKARKGAISSEEIIKYAHRISASNAVCAPLTWVPGDPRRPYPTDLEMRSGLLGQMNNPSTSGVNGHLPGDALAAGRLPDVLAPQYPWQSNDMSVNMLPPNHSSDFLLEPPGHNKENEDDVEVMSTDSSSSSSDSD
notes: MED4, Mus musculus, endogenous Middle module subunit of Mediator; source: endogenous, CH12 mouse B lymphoma nuclear extract; immunopurified as part of Mediator (FLAG M2 agarose, FLAG peptide elution)

Assays:
Assay in all cases: cryo-EM structure; endogenous mouse Mediator immunopurified from CH12 nuclear extract through 3×FLAG-MED19 or 3×FLAG-MED25; eluted in 50 mM HEPES pH 7.9, 100 mM KCl, 5% glycerol, 1 mM EDTA, 0.005% NP-40; map at 4.0 Å overall, focused refinement of the MED1 and knob/hook ends (6-10 Å)
Details in all cases: both partners purified
MED22 = biological target: T1, MED22
MED17 = biological target: T2, MED17
MED29 = biological target: T3, MED29
MED27 = biological target: T4, MED27
MED28 = biological target: B4
MED30 = biological target: B1
MED1 = biological target: T5, MED1 (mouse (Mus musculus; endogenous in CH12), UniProt Q925J9 1-1575)
T5 construct: MED1, Mus musculus, endogenous Middle module subunit of Mediator; only a partial model of the folded N-terminal portion was built; Partial model only; this part of the map is at about 6-8 Å; also called Mediator subunit MED1; source: endogenous, CH12 mouse B lymphoma nuclear extract; immunopurified as part of Mediator (FLAG M2 agarose, FLAG peptide elution)

Measured: binding result

T5 sequence (Q925J9 whole entry): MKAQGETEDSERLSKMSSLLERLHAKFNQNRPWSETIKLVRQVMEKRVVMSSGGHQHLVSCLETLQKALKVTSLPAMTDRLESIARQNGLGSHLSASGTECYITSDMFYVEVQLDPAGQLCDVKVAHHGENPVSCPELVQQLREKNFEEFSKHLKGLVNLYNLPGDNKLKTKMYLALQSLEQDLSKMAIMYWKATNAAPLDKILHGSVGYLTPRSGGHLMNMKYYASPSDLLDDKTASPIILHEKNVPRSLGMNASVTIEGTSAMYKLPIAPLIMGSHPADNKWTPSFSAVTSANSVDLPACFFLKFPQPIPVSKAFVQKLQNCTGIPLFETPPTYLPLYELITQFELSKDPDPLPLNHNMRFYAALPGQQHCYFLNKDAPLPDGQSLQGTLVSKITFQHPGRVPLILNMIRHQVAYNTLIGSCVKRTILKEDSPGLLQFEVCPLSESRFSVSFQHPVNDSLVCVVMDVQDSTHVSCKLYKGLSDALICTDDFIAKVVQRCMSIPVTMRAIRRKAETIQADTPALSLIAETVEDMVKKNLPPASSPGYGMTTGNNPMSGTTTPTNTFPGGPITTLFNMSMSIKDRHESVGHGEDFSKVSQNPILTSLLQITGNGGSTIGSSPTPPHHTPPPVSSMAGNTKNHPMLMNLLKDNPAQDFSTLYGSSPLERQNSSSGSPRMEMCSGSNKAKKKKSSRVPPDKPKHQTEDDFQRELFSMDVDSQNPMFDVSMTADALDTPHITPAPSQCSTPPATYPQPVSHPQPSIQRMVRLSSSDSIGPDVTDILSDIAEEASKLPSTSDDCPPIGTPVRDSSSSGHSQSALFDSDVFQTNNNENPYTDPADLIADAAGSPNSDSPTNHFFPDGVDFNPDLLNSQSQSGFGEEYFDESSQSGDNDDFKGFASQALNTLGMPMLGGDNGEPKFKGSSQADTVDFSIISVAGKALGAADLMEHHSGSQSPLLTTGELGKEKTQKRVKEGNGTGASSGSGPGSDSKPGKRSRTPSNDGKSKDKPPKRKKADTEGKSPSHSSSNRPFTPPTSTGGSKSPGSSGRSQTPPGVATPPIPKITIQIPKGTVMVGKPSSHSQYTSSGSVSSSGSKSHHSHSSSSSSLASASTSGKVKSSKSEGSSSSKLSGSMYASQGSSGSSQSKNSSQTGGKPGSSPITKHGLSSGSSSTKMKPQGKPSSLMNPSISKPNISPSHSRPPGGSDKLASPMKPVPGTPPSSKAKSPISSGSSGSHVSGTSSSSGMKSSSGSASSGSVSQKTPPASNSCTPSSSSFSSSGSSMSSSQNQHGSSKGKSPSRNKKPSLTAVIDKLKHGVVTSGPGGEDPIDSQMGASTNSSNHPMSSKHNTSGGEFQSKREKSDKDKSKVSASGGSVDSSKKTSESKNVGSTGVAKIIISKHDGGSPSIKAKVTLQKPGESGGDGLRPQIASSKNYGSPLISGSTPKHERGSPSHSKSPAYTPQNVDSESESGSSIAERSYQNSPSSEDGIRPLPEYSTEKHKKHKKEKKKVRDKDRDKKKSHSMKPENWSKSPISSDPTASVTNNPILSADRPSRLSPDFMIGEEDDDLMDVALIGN

B1
binds: MED22 | MED17 | MED29 | MED27

B2
binds: MED28 | MED22 | MED17 | MED30

B3
binds: MED1

B4
not listed: MED28 | MED1
binds: all other assays above

B5
binds: MED1

Reference: PMC7921410, “Structure of mammalian Mediator complex reveals Tail module architecture and interaction with a conserved core” (Nature Communications, 2021)
